Tests used:
[1] = target: rA3G-CD1 FWKL mutant (Macaca mulatta (rhesus macaque), UniProt M1GSK9 1-138+=AEAG+147-196, F126Y;W127S;K180S;L184S;internal_change); experiment: ITC; ITC: 100 mM NaCl, 50 mM HEPES pH 7.5, 25 C; EMSA: 60 mM HEPES pH 7.5, 100 mM NaCl, on ice 10 min, native PAGE; settings: protein: recombinant; tags: GST tag removed with PreScission (pGEX-6P-1)
[2] = target: rA3G-CD1 Y124A (Macaca mulatta (rhesus macaque), UniProt M1GSK9 1-138+=AEAG+147-196, Y124A;internal_change); experiment: as above; settings: protein: recombinant; tags: GST tag removed with PreScission (pGEX-6P-1)
[3] = target: T1, rA3G-CD1 (loop-8 mutant) (Macaca mulatta (rhesus macaque), UniProt M1GSK9 1-138+=AEAG+147-196, internal_change); experiment: ITC; n=1.47; ITC: 100 mM NaCl, 50 mM HEPES pH 7.5, 25 C; EMSA: 60 mM HEPES pH 7.5, 100 mM NaCl, on ice 10 min, native PAGE; settings: protein: recombinant; tags: GST tag removed with PreScission (pGEX-6P-1); chain copies: 2
[4] = target: T1, rA3G-CD1 (loop-8 mutant); experiment: ITC; n=0.83; ITC: 100 mM NaCl, 50 mM HEPES pH 7.5, 25 C; EMSA: 60 mM HEPES pH 7.5, 100 mM NaCl, on ice 10 min, native PAGE; settings: protein: recombinant; tags: GST tag removed with PreScission (pGEX-6P-1); chain copies: 2
[5] = target: T1, rA3G-CD1 (loop-8 mutant); experiment: EMSA; ITC: 100 mM NaCl, 50 mM HEPES pH 7.5, 25 C; EMSA: 60 mM HEPES pH 7.5, 100 mM NaCl, on ice 10 min, native PAGE; settings: protein: recombinant, tags: GST tag removed with PreScission (pGEX-6P-1), chain copies: 2

T1 sequence (M1GSK9 entry or part of it | mutant): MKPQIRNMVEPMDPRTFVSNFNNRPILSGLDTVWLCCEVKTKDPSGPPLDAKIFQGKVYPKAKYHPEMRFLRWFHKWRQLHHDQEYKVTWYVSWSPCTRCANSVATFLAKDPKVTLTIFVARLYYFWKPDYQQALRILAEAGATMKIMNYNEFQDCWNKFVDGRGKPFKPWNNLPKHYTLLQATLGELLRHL
Sequence of rA3G-CD1 FWKL mutant (M1GSK9 entry or part of it F126Y;W127S;K180S;L184S/| mutant): as the sequence (M1GSK9 entry or part of it | mutant) above, with F126Y, W127S, K176S, L180S counted along it
Sequence of rA3G-CD1 Y124A (M1GSK9 entry or part of it Y124A/| Y124A Y124A): as the sequence (M1GSK9 entry or part of it | mutant) above, with Y124A counted along it

| Binder | binding result [1] | binding result [2] | other results |
| --- | --- | --- | --- |
| TTTTTTTTTT (ssDNA) [10 nt poly-dT ssDNA] | no binding | no binding | Kd [3]: 1570 ± 310 nM |
| UAUUCAUUAU (ssRNA) [10 nt RNA] | no binding | no binding | Kd [4]: 1490 ± 180 nM |
| ATTATTATTATTTATCCCTATTTATATTTATTGTTATTGTTATTGTTATA (ssDNA) [50 nt ssDNA] | – | – | binding result ([5]; label: 5'-FAM (EMSA)): binds |
| AUUAUUAUUAUUUAUCCCUAUUUAUAUUUAUUGUUAUUGUUAUUGUUAUA (ssRNA) [50 nt RNA] | – | – | binding result ([5]; label: 5'-FAM): binds |

Source: PMC4974639, “Crystal structures of APOBEC3G N-domain alone and its complex with DNA”
